Measured values reported in the supplement of paper PMC10065799, “High-throughput profiling of sequence recognition by tyrosine kinases and SH2 domains using bacterial peptide display” (eLife, 2023).

What follows are sequences tested on Fer (mouse) (assay: phosphorylation enrichment, bacterial display (enrichment ratio); higher = better substrate or ligand; peptides without Tyr show the background).
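Also: 11-residue human phosphosite peptides and single-mutation variants displayed on the E. coli surface, counted by deep sequencing, each peptide's frequency after selection divided by its frequency in the unselected input library; frequency after pTyr selection over input frequency; kinase dosed for 20-30% of maximal phosphorylation in three min.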

| Sequence | phosphorylation enrichment |
| --- | --- |
| FVSIVYSDSGE [TSC2_Y1650_N1651S] | 0.403 |
| PVQAAYQKVVP [HBB_Y131_A136P] | 0.827 |
| VARAVYQAVLS [SMG1_Y549_H546R] | 1.33 |
| VWALTYCDLHK [KCNH2_Y827_R823W] | 0.594 |
| QEIATHRRLLE [KRT14_Y415_Y415H] | 0.711 |
| YQQLFYLLQTN [IQGAP2_Y890] | 0.692 |
| TSSSRYFDEPV [ARFGAP3_Y356_S355R] | 0.417 |
| VERIHYIGQNE [HMOX2_Y140] | 0.434 |
| ESDGAYIHRMQ [CCDC137_Y125] | 0.414 |
| KILAKYSLETS [NAMPT_Y175_L176S] | 0.377 |
| ESKAGYRAPRS [CLDN7_Y195_V197A] | 0.339 |
| GQRDLYSGLNE [CD3E_Y199_Q204E] | 1.94 |
| GGGFGYQKTRK [DDX18_Y643_K647R] | 0.422 |
| SLIDMYSEVLD [OPA1_Y268] | 0.535 |
| ADRAAYLQNLN [MYH1_Y389_K386R] | 0.364 |
| FSNKLHFQLEQ [PDPR_Y109_Y109H_YF] | 0.43 |

These sequences were tested on c-Src in the same assay as above.

| Sequence | phosphorylation enrichment |
| --- | --- |
| FVSIVYSDSGE [TSC2_Y1650_N1651S] | 0.591 |
| PVQAAYQKVVP [HBB_Y131_A136P] | 0.626 |
| VARAVYQAVLS [SMG1_Y549_H546R] | 1.36 |
| VWALTYCDLHK [KCNH2_Y827_R823W] | 1.2 |
| QEIATHRRLLE [KRT14_Y415_Y415H] | 0.43 |
| YQQLFYLLQTN [IQGAP2_Y890] | 1.3 |
| TSSSRYFDEPV [ARFGAP3_Y356_S355R] | 0.399 |
| VERIHYIGQNE [HMOX2_Y140] | 0.368 |
| ESDGAYIHRMQ [CCDC137_Y125] | 0.403 |
| KILAKYSLETS [NAMPT_Y175_L176S] | 0.301 |
| ESKAGYRAPRS [CLDN7_Y195_V197A] | 0.349 |
| GQRDLYSGLNE [CD3E_Y199_Q204E] | 5.28 |
| GGGFGYQKTRK [DDX18_Y643_K647R] | 0.492 |
| SLIDMYSEVLD [OPA1_Y268] | 0.591 |
| ADRAAYLQNLN [MYH1_Y389_K386R] | 0.42 |
| FSNKLHFQLEQ [PDPR_Y109_Y109H_YF] | 0.491 |

These sequences were tested on c-Abl (mouse) in the same assay as above.

| Sequence | phosphorylation enrichment |
| --- | --- |
| FVSIVYSDSGE [TSC2_Y1650_N1651S] | 0.529 |
| PVQAAYQKVVP [HBB_Y131_A136P] | 0.561 |
| VARAVYQAVLS [SMG1_Y549_H546R] | 0.75 |
| VWALTYCDLHK [KCNH2_Y827_R823W] | 0.809 |
| QEIATHRRLLE [KRT14_Y415_Y415H] | 0.695 |
| YQQLFYLLQTN [IQGAP2_Y890] | 1.03 |
| TSSSRYFDEPV [ARFGAP3_Y356_S355R] | 0.447 |
| VERIHYIGQNE [HMOX2_Y140] | 0.344 |
| ESDGAYIHRMQ [CCDC137_Y125] | 0.703 |
| KILAKYSLETS [NAMPT_Y175_L176S] | 0.476 |
| ESKAGYRAPRS [CLDN7_Y195_V197A] | 0.402 |
| GQRDLYSGLNE [CD3E_Y199_Q204E] | 0.566 |
| GGGFGYQKTRK [DDX18_Y643_K647R] | 0.719 |
| SLIDMYSEVLD [OPA1_Y268] | 0.569 |
| ADRAAYLQNLN [MYH1_Y389_K386R] | 0.679 |
| FSNKLHFQLEQ [PDPR_Y109_Y109H_YF] | 0.709 |

Each sequence was assayed on AncSZ in the same assay as above.

| Sequence | phosphorylation enrichment |
| --- | --- |
| FVSIVYSDSGE [TSC2_Y1650_N1651S] | 0.766 |
| PVQAAYQKVVP [HBB_Y131_A136P] | 0.763 |
| VARAVYQAVLS [SMG1_Y549_H546R] | 0.999 |
| VWALTYCDLHK [KCNH2_Y827_R823W] | 1.28 |
| QEIATHRRLLE [KRT14_Y415_Y415H] | 0.692 |
| YQQLFYLLQTN [IQGAP2_Y890] | 1.36 |
| TSSSRYFDEPV [ARFGAP3_Y356_S355R] | 0.792 |
| VERIHYIGQNE [HMOX2_Y140] | 0.617 |
| ESDGAYIHRMQ [CCDC137_Y125] | 0.726 |
| KILAKYSLETS [NAMPT_Y175_L176S] | 0.537 |
| ESKAGYRAPRS [CLDN7_Y195_V197A] | 0.536 |
| GQRDLYSGLNE [CD3E_Y199_Q204E] | 1.23 |
| GGGFGYQKTRK [DDX18_Y643_K647R] | 0.597 |
| SLIDMYSEVLD [OPA1_Y268] | 1.26 |
| ADRAAYLQNLN [MYH1_Y389_K386R] | 0.604 |
| FSNKLHFQLEQ [PDPR_Y109_Y109H_YF] | 0.976 |

Each sequence was assayed against Fyn (UniProt P06241) in the same assay as above.
Sequence of Fyn (P06241 whole entry, looked up): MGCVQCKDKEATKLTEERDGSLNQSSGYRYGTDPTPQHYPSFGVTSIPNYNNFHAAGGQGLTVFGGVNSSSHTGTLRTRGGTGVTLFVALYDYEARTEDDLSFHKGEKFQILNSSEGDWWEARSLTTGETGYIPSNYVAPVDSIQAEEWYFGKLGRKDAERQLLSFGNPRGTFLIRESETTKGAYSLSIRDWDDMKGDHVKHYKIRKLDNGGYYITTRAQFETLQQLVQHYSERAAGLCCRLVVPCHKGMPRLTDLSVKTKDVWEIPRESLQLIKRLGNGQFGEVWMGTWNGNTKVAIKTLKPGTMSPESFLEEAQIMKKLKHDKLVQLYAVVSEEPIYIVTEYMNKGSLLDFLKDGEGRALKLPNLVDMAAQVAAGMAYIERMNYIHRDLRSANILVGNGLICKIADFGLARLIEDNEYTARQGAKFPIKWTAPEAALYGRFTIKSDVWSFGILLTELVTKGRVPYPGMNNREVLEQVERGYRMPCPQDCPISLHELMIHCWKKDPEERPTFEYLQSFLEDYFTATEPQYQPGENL

| Sequence | phosphorylation enrichment |
| --- | --- |
| FVSIVYSDSGE [TSC2_Y1650_N1651S] | 0.506 |
| PVQAAYQKVVP [HBB_Y131_A136P] | 0.878 |
| VARAVYQAVLS [SMG1_Y549_H546R] | 1.07 |
| VWALTYCDLHK [KCNH2_Y827_R823W] | 0.605 |
| QEIATHRRLLE [KRT14_Y415_Y415H] | 0.576 |
| YQQLFYLLQTN [IQGAP2_Y890] | 0.751 |
| TSSSRYFDEPV [ARFGAP3_Y356_S355R] | 0.511 |
| VERIHYIGQNE [HMOX2_Y140] | 0.494 |
| ESDGAYIHRMQ [CCDC137_Y125] | 0.365 |
| KILAKYSLETS [NAMPT_Y175_L176S] | 0.354 |
| ESKAGYRAPRS [CLDN7_Y195_V197A] | 0.415 |
| GQRDLYSGLNE [CD3E_Y199_Q204E] | 4.4 |
| GGGFGYQKTRK [DDX18_Y643_K647R] | 0.401 |
| SLIDMYSEVLD [OPA1_Y268] | 0.575 |
| ADRAAYLQNLN [MYH1_Y389_K386R] | 0.336 |
| FSNKLHFQLEQ [PDPR_Y109_Y109H_YF] | 0.471 |

What follows are sequences tested against MERTK (UniProt Q12866) in the same assay as above.
Sequence of MERTK (Q12866 whole entry, looked up): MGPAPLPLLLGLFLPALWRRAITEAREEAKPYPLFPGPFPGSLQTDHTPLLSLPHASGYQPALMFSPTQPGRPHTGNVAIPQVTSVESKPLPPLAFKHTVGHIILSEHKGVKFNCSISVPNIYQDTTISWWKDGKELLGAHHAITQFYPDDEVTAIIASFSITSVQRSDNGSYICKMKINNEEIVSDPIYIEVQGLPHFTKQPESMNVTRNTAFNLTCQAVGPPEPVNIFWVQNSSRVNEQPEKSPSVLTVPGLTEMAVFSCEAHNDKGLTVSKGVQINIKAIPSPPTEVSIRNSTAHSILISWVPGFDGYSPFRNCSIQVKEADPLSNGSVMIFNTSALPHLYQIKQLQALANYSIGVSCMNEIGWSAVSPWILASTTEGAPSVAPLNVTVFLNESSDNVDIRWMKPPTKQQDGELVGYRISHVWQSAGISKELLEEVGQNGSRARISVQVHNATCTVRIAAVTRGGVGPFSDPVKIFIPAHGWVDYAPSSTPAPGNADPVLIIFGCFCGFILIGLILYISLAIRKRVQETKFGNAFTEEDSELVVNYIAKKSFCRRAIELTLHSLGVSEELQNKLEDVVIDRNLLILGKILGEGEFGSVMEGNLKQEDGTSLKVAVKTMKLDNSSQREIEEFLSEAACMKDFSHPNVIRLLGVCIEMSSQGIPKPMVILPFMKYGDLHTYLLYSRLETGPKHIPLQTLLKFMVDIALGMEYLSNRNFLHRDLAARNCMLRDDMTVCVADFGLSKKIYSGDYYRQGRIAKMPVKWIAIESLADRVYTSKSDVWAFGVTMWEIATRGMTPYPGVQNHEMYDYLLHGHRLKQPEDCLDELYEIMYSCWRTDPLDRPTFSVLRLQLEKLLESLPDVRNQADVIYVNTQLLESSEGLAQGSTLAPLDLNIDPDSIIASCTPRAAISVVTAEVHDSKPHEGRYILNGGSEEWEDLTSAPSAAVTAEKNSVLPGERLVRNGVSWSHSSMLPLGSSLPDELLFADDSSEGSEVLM

| Sequence | phosphorylation enrichment |
| --- | --- |
| FVSIVYSDSGE [TSC2_Y1650_N1651S] | 0.37 |
| PVQAAYQKVVP [HBB_Y131_A136P] | 0.619 |
| VARAVYQAVLS [SMG1_Y549_H546R] | 0.758 |
| VWALTYCDLHK [KCNH2_Y827_R823W] | 0.507 |
| QEIATHRRLLE [KRT14_Y415_Y415H] | 0.69 |
| YQQLFYLLQTN [IQGAP2_Y890] | 2.7 |
| TSSSRYFDEPV [ARFGAP3_Y356_S355R] | 0.391 |
| VERIHYIGQNE [HMOX2_Y140] | 0.522 |
| ESDGAYIHRMQ [CCDC137_Y125] | 0.406 |
| KILAKYSLETS [NAMPT_Y175_L176S] | 0.256 |
| ESKAGYRAPRS [CLDN7_Y195_V197A] | 0.34 |
| GQRDLYSGLNE [CD3E_Y199_Q204E] | 2.58 |
| GGGFGYQKTRK [DDX18_Y643_K647R] | 0.514 |
| SLIDMYSEVLD [OPA1_Y268] | 0.527 |
| ADRAAYLQNLN [MYH1_Y389_K386R] | 0.362 |
| FSNKLHFQLEQ [PDPR_Y109_Y109H_YF] | 0.51 |

The sequences below were run against Hck (UniProt P08631) in the same assay as above.
Sequence of Hck (P08631 whole entry, looked up): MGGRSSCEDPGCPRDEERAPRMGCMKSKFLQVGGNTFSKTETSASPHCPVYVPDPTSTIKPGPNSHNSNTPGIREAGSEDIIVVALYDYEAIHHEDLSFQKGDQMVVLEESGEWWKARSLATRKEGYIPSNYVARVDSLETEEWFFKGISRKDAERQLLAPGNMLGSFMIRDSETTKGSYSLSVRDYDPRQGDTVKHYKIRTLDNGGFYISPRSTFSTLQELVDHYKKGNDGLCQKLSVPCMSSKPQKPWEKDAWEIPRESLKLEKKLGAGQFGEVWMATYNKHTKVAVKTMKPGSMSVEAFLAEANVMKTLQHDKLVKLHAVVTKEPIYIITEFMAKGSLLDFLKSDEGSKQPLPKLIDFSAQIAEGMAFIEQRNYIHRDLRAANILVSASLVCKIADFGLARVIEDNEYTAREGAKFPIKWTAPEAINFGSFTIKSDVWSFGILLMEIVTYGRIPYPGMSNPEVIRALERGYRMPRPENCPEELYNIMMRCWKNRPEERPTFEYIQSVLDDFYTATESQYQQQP

| Sequence | phosphorylation enrichment |
| --- | --- |
| FVSIVYSDSGE [TSC2_Y1650_N1651S] | 0.532 |
| PVQAAYQKVVP [HBB_Y131_A136P] | 0.803 |
| VARAVYQAVLS [SMG1_Y549_H546R] | 2.26 |
| VWALTYCDLHK [KCNH2_Y827_R823W] | 0.632 |
| QEIATHRRLLE [KRT14_Y415_Y415H] | 0.508 |
| YQQLFYLLQTN [IQGAP2_Y890] | 1.17 |
| TSSSRYFDEPV [ARFGAP3_Y356_S355R] | 0.495 |
| VERIHYIGQNE [HMOX2_Y140] | 0.453 |
| ESDGAYIHRMQ [CCDC137_Y125] | 0.378 |
| KILAKYSLETS [NAMPT_Y175_L176S] | 0.437 |
| ESKAGYRAPRS [CLDN7_Y195_V197A] | 0.404 |
| GQRDLYSGLNE [CD3E_Y199_Q204E] | 9.08 |
| GGGFGYQKTRK [DDX18_Y643_K647R] | 0.393 |
| SLIDMYSEVLD [OPA1_Y268] | 0.579 |
| ADRAAYLQNLN [MYH1_Y389_K386R] | 0.334 |
| FSNKLHFQLEQ [PDPR_Y109_Y109H_YF] | 0.398 |

These sequences were tested against Jak2 (UniProt O60674) in the same assay as above.
Sequence of Jak2 (O60674 whole entry, looked up): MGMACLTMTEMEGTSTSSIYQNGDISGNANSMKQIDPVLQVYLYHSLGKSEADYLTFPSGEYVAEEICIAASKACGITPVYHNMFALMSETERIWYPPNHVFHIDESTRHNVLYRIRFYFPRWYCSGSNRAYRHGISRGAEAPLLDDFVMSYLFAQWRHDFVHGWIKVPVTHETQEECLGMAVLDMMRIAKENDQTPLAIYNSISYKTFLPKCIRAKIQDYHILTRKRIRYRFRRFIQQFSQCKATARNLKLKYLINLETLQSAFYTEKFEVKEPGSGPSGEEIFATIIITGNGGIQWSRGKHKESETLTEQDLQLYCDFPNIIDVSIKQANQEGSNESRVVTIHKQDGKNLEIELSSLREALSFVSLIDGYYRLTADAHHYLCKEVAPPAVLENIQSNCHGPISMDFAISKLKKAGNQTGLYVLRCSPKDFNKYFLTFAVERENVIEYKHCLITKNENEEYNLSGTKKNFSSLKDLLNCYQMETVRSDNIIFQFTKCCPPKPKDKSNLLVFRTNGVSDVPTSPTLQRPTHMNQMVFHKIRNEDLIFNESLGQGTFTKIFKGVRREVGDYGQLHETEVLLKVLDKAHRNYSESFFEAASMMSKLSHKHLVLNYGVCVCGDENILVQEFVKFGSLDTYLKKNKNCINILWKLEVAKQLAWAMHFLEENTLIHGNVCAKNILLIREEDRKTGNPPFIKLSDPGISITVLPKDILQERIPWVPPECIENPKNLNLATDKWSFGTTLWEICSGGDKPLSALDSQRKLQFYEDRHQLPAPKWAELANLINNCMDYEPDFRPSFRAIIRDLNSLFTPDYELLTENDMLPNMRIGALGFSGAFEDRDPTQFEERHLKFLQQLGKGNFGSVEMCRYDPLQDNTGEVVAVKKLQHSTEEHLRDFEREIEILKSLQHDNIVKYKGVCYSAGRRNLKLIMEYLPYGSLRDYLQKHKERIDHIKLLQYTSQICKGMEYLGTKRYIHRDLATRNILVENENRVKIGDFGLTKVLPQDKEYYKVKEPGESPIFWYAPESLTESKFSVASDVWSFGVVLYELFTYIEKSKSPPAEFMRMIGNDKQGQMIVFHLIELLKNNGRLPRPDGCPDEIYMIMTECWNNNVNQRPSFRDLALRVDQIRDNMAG

| Sequence | phosphorylation enrichment |
| --- | --- |
| FVSIVYSDSGE [TSC2_Y1650_N1651S] | 0.952 |
| PVQAAYQKVVP [HBB_Y131_A136P] | 0.88 |
| VARAVYQAVLS [SMG1_Y549_H546R] | 0.722 |
| VWALTYCDLHK [KCNH2_Y827_R823W] | 1.49 |
| QEIATHRRLLE [KRT14_Y415_Y415H] | 0.575 |
| YQQLFYLLQTN [IQGAP2_Y890] | 1.39 |
| TSSSRYFDEPV [ARFGAP3_Y356_S355R] | 0.61 |
| VERIHYIGQNE [HMOX2_Y140] | 0.553 |
| ESDGAYIHRMQ [CCDC137_Y125] | 0.824 |
| KILAKYSLETS [NAMPT_Y175_L176S] | 0.503 |
| ESKAGYRAPRS [CLDN7_Y195_V197A] | 0.593 |
| GQRDLYSGLNE [CD3E_Y199_Q204E] | 0.716 |
| GGGFGYQKTRK [DDX18_Y643_K647R] | 0.57 |
| SLIDMYSEVLD [OPA1_Y268] | 1.1 |
| ADRAAYLQNLN [MYH1_Y389_K386R] | 0.604 |
| FSNKLHFQLEQ [PDPR_Y109_Y109H_YF] | 0.889 |
